Data: patent US20190233494A1 (Sanofi, published 2019)
Starred links: 1 amine or outer side, 2 acyl side, 3 side chain; linkers in the order of their positions; H or OH if unused. Non-standard residues stand in square brackets, D forms with d. Groups on a side chain read outwards from the residue. *: point of attachment. TTDS = 4-[3-[2-[2-(3-aminopropoxy)ethoxy]ethoxy]propylamino]-4-oxo-butanoyl; γGlu = O=C(O)[C@H](CCC(=O)[*:2])N[*:1]; Stearoyl = CCCCCCCCCCCCCCCCCC(=O)*; Palmitoyl = CCCCCCCCCCCCCCCC(=O)*; Cit = NC(=O)NCCC[C@H](N)C(=O)O; αMeK = C[C@](N)(CCCCN)C(=O)O; hLys = NCCCCC[C@H](N)C(=O)O; AEEA = NCCOCCOCC(=O)O; Aib = CC(C)(N)C(=O)O

T1: RXFP1 receptor (endogenous, on OVCAR5 cells) (UniProt Q9HBX9 1-757, limits assumed)
T1 sequence (looked up): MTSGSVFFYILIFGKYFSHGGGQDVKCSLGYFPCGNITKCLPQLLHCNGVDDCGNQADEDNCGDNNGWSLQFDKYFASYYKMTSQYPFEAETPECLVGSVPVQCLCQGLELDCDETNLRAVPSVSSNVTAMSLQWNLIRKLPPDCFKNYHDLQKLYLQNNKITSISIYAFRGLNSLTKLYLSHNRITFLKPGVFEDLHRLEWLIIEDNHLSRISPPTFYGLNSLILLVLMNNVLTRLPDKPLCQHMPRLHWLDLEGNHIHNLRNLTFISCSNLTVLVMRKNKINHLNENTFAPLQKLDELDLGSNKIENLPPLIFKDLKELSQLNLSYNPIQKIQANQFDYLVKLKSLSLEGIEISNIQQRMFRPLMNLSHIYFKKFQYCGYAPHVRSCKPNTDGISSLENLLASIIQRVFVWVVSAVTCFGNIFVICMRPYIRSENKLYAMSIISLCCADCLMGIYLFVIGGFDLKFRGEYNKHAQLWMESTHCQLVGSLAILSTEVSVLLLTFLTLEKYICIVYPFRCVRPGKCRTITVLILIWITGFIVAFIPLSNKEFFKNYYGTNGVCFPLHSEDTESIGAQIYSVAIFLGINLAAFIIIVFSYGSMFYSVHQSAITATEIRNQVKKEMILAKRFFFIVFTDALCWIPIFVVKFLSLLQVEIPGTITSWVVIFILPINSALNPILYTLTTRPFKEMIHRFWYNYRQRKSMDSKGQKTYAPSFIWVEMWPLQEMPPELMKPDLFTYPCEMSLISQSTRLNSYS


target: T1, RXFP1 receptor (endogenous, on OVCAR5 …); experiment: cell-based or functional assay

Row | EC50 (nM), OVCAR 5 cells (cAMP) | EMax, OVCAR 5 cells (cAMP) | Binder
1 | 0.19 nM | 97% | Ac-LEGREKVRAK(Ac)I[Aib][Aib]EGK([TTDS-TTDS-TTDS-γGlu-γGlu-γGlu-Palmitoyl])STFS[αMeK]RAK-NH2 [peptide of SEQ ID NO: 49]
2 | 0.15 nM | 91% | Ac-LEGREKVRA[Cit]I[Aib][Aib]EGK([TTDS-TTDS-TTDS-γGlu-γGlu-γGlu-Stearoyl])STFS[αMeK]RAK(Ac)-NH2 [peptide of SEQ ID NO: 56]
3 | 0.45 nM | 96% | Ac-LEGREKVRAQI[Aib][Aib]EGK([TTDS-TTDS-TTDS-γGlu-γGlu-γGlu-Palmitoyl])STFS[αMeK]RAK(Ac)-NH2 [peptide of SEQ ID NO: 48]
4 | 2.2 nM | 97% | Ac-LEGREKVRAK(Ac)I[Aib][Aib]EGK([TTDS-TTDS-TTDS-γGlu-γGlu-γGlu-Palmitoyl])STW[Dser]KRAK(Ac)-NH2 [peptide of SEQ ID NO: 44]
5 | 1.5 nM | 84% | Ac-LEGREKVRAK(Ac)I[Aib][Aib]EGK([AEEA-AEEA-AEEA-AEEA-γGlu-γGlu-γGlu-Palmitoyl])STWS[αMeK]RAK(Ac)-NH2 (SMILES CCCCCCCCCCCCCCCC(=O)N[C@@H](CCC(=O)N[C@@H](CCC(=O)N[C@@H](CCC(=O)NCCOCCOCC(=O)NCCOCCOCC(=O)NCCOCCOCC(=O)NCCOCCOCC(=O)NCCCC[C@H](NC(=O)CNC(=O)[C@H](CCC(=O)O)NC(=O)C(C)(C)NC(=O)C(C)(C)NC(=O)[C@@H](NC(=O)[C@H](CCCCNC(C)=O)NC(=O)[C@H](C)NC(=O)[C@H](CCCNC(=N)N)NC(=O)[C@@H](NC(=O)[C@H](CCCCN)NC(=O)[C@H](CCC(=O)O)NC(=O)[C@H](CCCNC(=N)N)NC(=O)CNC(=O)[C@H](CCC(=O)O)NC(=O)[C@H](CC(C)C)NC(C)=O)C(C)C)[C@@H](C)CC)C(=O)N[C@@H](CO)C(=O)N[C@H](C(=O)N[C@@H](Cc1c[nH]c2ccccc12)C(=O)N[C@@H](CO)C(=O)N[C@@](C)(CCCCN)C(=O)N[C@@H](CCCNC(=N)N)C(=O)N[C@@H](C)C(=O)N[C@@H](CCCCNC(C)=O)C(N)=O)[C@@H](C)O)C(=O)O)C(=O)O)C(=O)O) [peptide of SEQ ID NO: 42]
6 | 0.45 nM | 96% | Ac-LEGREKVRAK(Ac)I[Aib][Aib]EGK([AEEA-AEEA-AEEA-AEEA-AEEA-γGlu-γGlu-γGlu-Palmitoyl])STFS[αMeK]RAK(Ac)-NH2 (SMILES CCCCCCCCCCCCCCCC(=O)N[C@@H](CCC(=O)N[C@@H](CCC(=O)N[C@@H](CCC(=O)NCCOCCOCC(=O)NCCOCCOCC(=O)NCCOCCOCC(=O)NCCOCCOCC(=O)NCCOCCOCC(=O)NCCCC[C@H](NC(=O)CNC(=O)[C@H](CCC(=O)O)NC(=O)C(C)(C)NC(=O)C(C)(C)NC(=O)[C@@H](NC(=O)[C@H](CCCCNC(C)=O)NC(=O)[C@H](C)NC(=O)[C@H](CCCNC(=N)N)NC(=O)[C@@H](NC(=O)[C@H](CCCCN)NC(=O)[C@H](CCC(=O)O)NC(=O)[C@H](CCCNC(=N)N)NC(=O)CNC(=O)[C@H](CCC(=O)O)NC(=O)[C@H](CC(C)C)NC(C)=O)C(C)C)[C@@H](C)CC)C(=O)N[C@@H](CO)C(=O)N[C@H](C(=O)N[C@@H](Cc1ccccc1)C(=O)N[C@@H](CO)C(=O)N[C@@](C)(CCCCN)C(=O)N[C@@H](CCCNC(=N)N)C(=O)N[C@@H](C)C(=O)N[C@@H](CCCCNC(C)=O)C(N)=O)[C@@H](C)O)C(=O)O)C(=O)O)C(=O)O) [peptide of SEQ ID NO: 45]
7 | 0.18 nM | – | Ac-LEGRERVRAK(Ac)I[Aib][Aib]EGK([TTDS-TTDS-TTDS-γGlu-γGlu-γGlu-Palmitoyl])STWS[Aib]RRK(Ac)-NH2 [peptide of SEQ ID NO: 55]
8 | 0.1 nM | 98% | Ac-LEGREKVRAK(Ac)I[Aib][Aib]EGK([TTDS-TTDS-TTDS-γGlu-γGlu-γGlu-γGlu-Stearoyl])STWS[Aib]RKK(Ac)-NH2 [peptide of SEQ ID NO: 51]
9 | 0.44 nM | 98% | Ac-LEGREKVRAK(Ac)I[Aib][Aib]EGK([TTDS-TTDS-TTDS-γGlu-γGlu-γGlu-Palmitoyl])STWS[hLys]RAK(Ac)-NH2 [peptide of SEQ ID NO: 57]
10 | 0.16 nM | 96% | Ac-LEGREKVRAK(Ac)I[Aib][Aib]EGK([TTDS-TTDS-γGlu-γGlu-γGlu-γGlu-Stearoyl])STWS[Aib]RKK(Ac)-NH2 [peptide of SEQ ID NO: 54]
11 | 0.64 nM | 95% | Ac-LEGREKVRAKI[Aib][Aib]EGK([TTDS-TTDS-TTDS-γGlu-γGlu-γGlu-Palmitoyl])STFS[αMeK]RAK(Ac)-NH2 [peptide of SEQ ID NO: 47]

Continued, binder first:

Row | Binder | EC50 (nM), OVCAR 5 cells (cAMP) | EMax, OVCAR 5 cells (cAMP)
12 | Ac-LEGREKVRAK(Ac)I[Aib][Aib]EGK([TTDS-TTDS-TTDS-γGlu-γGlu-γGlu-Palmitoyl])STFS[Dlys]RAK(Ac)-NH2 [peptide of SEQ ID NO: 36] | 3.6 nM | 93%
13 | Ac-LEGREKVRAK(Ac)I[Aib][Aib]EGK([TTDS-TTDS-γGlu-γGlu-γGlu-Palmitoyl])STWS[Aib]RKK(Ac)-NH2 [peptide of SEQ ID NO: 4] | 1.5 nM | 89%
14 | Ac-LEGRELVRAK(Ac)I[Aib][Aib]EGK([TTDS-TTDS-TTDS-γGlu-γGlu-γGlu-Palmitoyl])STWS[Aib]RRK(Ac)-NH2 [peptide of SEQ ID NO: 37] | 5.6 nM | 98%
15 | Ac-LEGREFVRAK(Ac)I[Aib][Aib]EGK([TTDS-TTDS-TTDS-γGlu-γGlu-γGlu-Palmitoyl])STWS[Aib]RRK(Ac)-NH2 [peptide of SEQ ID NO: 39] | 8.7 nM | 93%

target: T1, RXFP1 receptor (endogenous, on OVCAR5 …); experiment: cell-based or functional assay; remark: another data set of the same source

Row | EC50 (nM), cAMP assay in OVCAR 5 cells | Emax, cAMP assay in OVCAR 5 cells | Binder
16 | 206 nM | 84% | Ac-VIKLSGRELVRAQIAISGMSTWSKKKK-NH2 [KKKK(AcB7-29 C11.23S)]
17 | 1640 nM | 90% | H-VIKLSGRELVRAQIAISGMSTWSKRSL-NH2 [B7-33 C11.23S]
18 | 929 nM | 70% | Ac-VIKLSGRELVRAQIAISGMSTWSKRSL-NH2 [AcB7-33 C11.23S]
